In patent publication US20250145701A1:

Experiments:
[1] = target: monkey PD-1 (ACRO, His tag) (monkey) (UniProt B0LAJ3); experiment: ELISA, monkey PD-1-His coated at 1 ug/mL, anti-human IgG Fc detection
[2] = target: monkey PD-1 (ACRO, His tag) (monkey) (UniProt B0LAJ3); experiment: ELISA, monkey PD-1-His coated at 1 ug/mL, anti-human IgG Fc detection, OD450
[3] = target: human VEGF (ACRO, His tag) (human) (UniProt P15692); experiment: ELISA, human VEGF-His coated at 50 ng/ml, anti-human IgG Fc detection, OD450; negative control
Chain of human VEGF (ACRO, His tag) (human) (P15692 other isoform, or with tags, fused parts or gaps limits assumed): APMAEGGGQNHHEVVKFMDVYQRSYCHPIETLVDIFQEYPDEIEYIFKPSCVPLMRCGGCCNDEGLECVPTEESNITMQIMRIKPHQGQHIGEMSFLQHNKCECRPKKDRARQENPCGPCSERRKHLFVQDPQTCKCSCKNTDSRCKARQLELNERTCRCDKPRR

[4] = target: biotin-labeled human VEGF (ACRO, biotinylated protein) (human) (UniProt P15692); experiment: bridging ELISA: human PD-1-His coated at 1 ug/mL, antibody, then biotinylated human VEGF at 50 ng/ml and streptavidin-HRP, OD450; single-target control
Chain of biotin-labeled human VEGF (ACRO, biotinylated protein) (human) (P15692 other isoform, or with tags, fused parts or gaps limits assumed): as above

Chain of monkey PD-1 (ACRO, His tag) (monkey) (B0LAJ3 entry or part of it limits assumed, form in doubt): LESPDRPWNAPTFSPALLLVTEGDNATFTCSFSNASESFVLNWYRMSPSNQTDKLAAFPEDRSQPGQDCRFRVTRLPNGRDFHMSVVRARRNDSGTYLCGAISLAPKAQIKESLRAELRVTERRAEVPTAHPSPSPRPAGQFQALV

## Keytruda (pembrolizumab) (antibody)
[1]
  EC50: 0.187 nM
[2]
  TOP OD: 3.08 OD

## Opdivo (nivolumab) (antibody)
[3]
  TOP OD: 0.048 OD
[1]
  EC50: 0.153 nM
[4]
  TOP OD: 0.048 OD
[2]
  TOP OD: 2.99 OD
